Experiment: soluble on expression in E. coli; label from the status in PepcDB or PDB records
For “MGSDKIHHHHHHMADNLALRMRPRNINEVIGQQHLVGNGKIIDRMVAANMLSSMILYGPPGIGKTSIASAIAGTTKYAFRTFNATVDSKKRLQEIAEEAKFSGGLVLLLDEIHRLDKTKQDFLLPLLENGNIIMIGATTENPFFSVTPAIRSRVQIFELEPLSNEDIKKAIQLAISDKERGFPFLVTIDDEALDFIVTATNGDLRSAYNSLDLAVMSTSPNEDGSRHISLETMENSLQCSYITMDKNGDGHYDILSALQKSIRGSDVNASLHYAARLVEAGDLPSLARRLTIIAYEDIGLANPEAQIHTVTALEAAQRIGFPEARILIANIVVDLALSPKSNSAYLAMDAALADLRRSGNLPIPRHLRDGHYSGSKTLGNARDYKYPHAYPEKWVKQQYLPDKLVGHNYFEANETGKYERALGSNKERIDKLSD”, the “soluble on expression in E. coli” value was “not soluble”.
With “MGSDKIHHHHHHMADWTDNLPEAAQAYLENRRLDEVECIISDLPGIARGKAVPASKFARQDYFHLPDSIFYQTITGDWGDAAGEEGFIERDMILRPDYSTATAAPWTGDWTLQVIHDAYDRDGDPIPFSPRNVLRRVVSLYHAQGWKPVVAPEMEFFLVARNLDPAKEIEPMMGRSGRPAAARQAYSMTAVDEFGPVIDDIYDFAEAQGFEIDGITQEGGAGQLEINLRHGSPVRLADEVFYFKRLIREAALRHNCFATFMAKPIENEPGSAMHIHHSIVDMETGENIFSGPQGGETDAFYHFIAGLQNHLPSGLAVMAPYVNSYRRYVKDHAAPINLEWGRDNRTTGIRVPLSGPAARRIENRLAGMDCNPYLGIAVSLACGYLGLMEELRPRKQFKGDAYVGEGDIPQVMGDALDLFDEAKALHEVLGPEFARVYSIVKRAEYNEFLQVISPWEREHLLMNV” the “soluble on expression in E. coli” value was “not soluble”.
In the case of “MGSDKIHHHHHHMADYTKMWSELGLDLKSHDALLSILGSAYGDIFLSQKDRPEGMKYFDFVMSEVHGLRIQELMEAKARGRIVVGSYCVFVPEELILAVDGVSVGLCAGAEFNFEGAEEVLPRNTCALIKSAFGFKFGKVCPYLEACDVVVGENTCDGKKKAYEILGPLVTDLYVIDLHQTKSDMGRALLKEEYRRFAAKLESVSGKKITPDSLKKGIEVVNAKRMAVKRLAAIRAADPAPISGLDALLVNQVFFYDDPVRFTHSVNQLCDELEERVKQGIGVFAQGTTRVIVSGCPMAVPNWKLPMLIESSNAVIVGEESCVGERGTRWLTEFRGETEEDLLDALTERYFSIDCAVFTPNPSRVDYVKEMTKKLNAQGVIHYSLQFCQPHMVESGPVEKELEKSGIPTLRLETDYSQEDAGQLKTRIEAFVERLENK”, the “soluble on expression in E. coli” value is reported as “not soluble”.
In the case of “MGSDKIHHHHHHMAEVHVIGQIIGATGFSESSLFCKWGIHTGAAWKLLSGVREGQTQVDTPQIGDMAYWSHPIDLHFATKGLQGWPRLHLQVWSQDSFGRCQLAGYGFCHVPSSPGTHQLDCPTWRPLGSWREQLARAFVGGGPQLLHADTIYSGADRYRLHTAAGGTVHLGIGLLLRHFDRYGVEC”, the “soluble on expression in E. coli” value is reported as “not soluble”.
In the case of “MGSDKIHHHHHHMAFFDLPLEELKKYRPERYEEKDFDEFWEETLAESEKFPLDPVFERMESHLKTVEAYDVTFSGYRGQRIKGWLLVPKLEEEKLPCVVQYIGYNGGRGFPHDWLFWPSMGYICFVMDTRGQGSGWLKGDTPDYPEGPVDPQYPGFMTRGILDPRTYYYRRVFTDAVRAVEAAASFPQVDQERIVIAGGSQGGGIALAVSALSKKAKALLCDVPFLCHFRRAVQLVDTHPYAEITNFLKTHRDKEEIVFRTLSYFDGVNFAARAKIPALFSVGLMDNICPPSTVFAAYNYYAGPKEIRIYPYNNHEGGGSFQAVEQVKFLKKLFEKG”, the “soluble on expression in E. coli” value is reported as “soluble”.
In the case of “MGSDKIHHHHHHMAIGIVIASHGEFAAGIHQSGSMIFGDQEKVQVVTFMPSEGPDDLYAKFNDAIAAFDADDEILVLADLWSGSPFNQASRVMEENSDRKFAIITGLNLPMLIQAYTERMMDAAAGVEQVAANIIKEAKDGVKILPEKLQPQEEAPTTSTKKAAPQGAIPEGTVIGDGKLKINLARVDTRLLHGQVATNWTPASKADRIIVASDTVAKDELRKGLIKQAAPGGVKANVVPIKKLIEAAKDPRFGNTHALILFETPQEALEAIEGGVPITELNIGSMAHSTGKTMVNNVISMDKDDVATFEKLRDLGVKFDVRKVPNDSQKDLFELIEKAHVQ”, the “soluble on expression in E. coli” value is reported as “not soluble”.
In the case of “MGSDKIHHHHHHMAISVTAEEKQILAGVTIPPRPQALLDISKEAKQEYPDVSKIAKAISEDVGISAAVLQVVNSVAFRRNNQISSIHQAVMTLGIKRIFPLVKAVAIKGALPENPMLNEFWQSSSMVASACTLYANLLGKANLSDNAYMLGLFHNAGVPVMLQAFPAYQALLMRGITEGWGEVASLEVQEFKTSHTTLGALLAQQWELPKPMVEVIYYLHDIDGIFTSGELSEVGLYLLAILKLARSSVDGVIRGECNTDEWLKIQDPLLAFLNLDEVQLDEFREEVAEKLRSEG”, the “soluble on expression in E. coli” value is reported as “not soluble”.
For “MGSDKIHHHHHHMAKAKTAYSCTECGGQTPKWQGQCPSCMAWNTLVESVVEAAPSQNRYAALAQSSGLQKLADVEAADVPRHPTGIHEFDRVLGGGLVPGGVVLIGGDPGIGKSTLLLQTLCHIGGMRKAVYVSGEESAQQIAMRAKRLGLDAGPVELLAEISLEKILAILQQHKPEVAVIDSIQTLYSEALQSAPGSVAQVRECSAQLTRFAKQTGVTMILVGHVTKEGSLAGPRVLEHIVDTVLYFEGGQNSSFRLVRAFKNRFGAVNELGVFAMTEKGLREVSNPSALFLSHHAEQVAGSCITVTQEGSRPLLVEVQALVDEAHAPNPKRLCVGLEQNRLAMLLAVLHRHAGVACFDQDVFINAVGGVRISEPAVDLAVLLAIVSSLKNKPLNNKLIVFGEVGLAGEVRPVQRGQERLREAAKLGFTHAIVPKANLPKQVIDGLDVKGVERLDQALQLLRNG”, the “soluble on expression in E. coli” value was “not soluble”.
In the case of “MGSDKIHHHHHHMAKKHEPFVIGDVSVAAGTQQSVKLPAAKLYNDTPMDLHVEVFHGTKAGPVLLVCAAIHGDELNGIEICRRLLGRVNAKTLTGTLLIVPIVNVFGFIQQSRYLPDRRDLNRCFPGSAKGALASRLAHLFSSILVKRATHIVDLHTGAIHRDNLPQIRCDTDDEVMLDMANAFGAPVIMSSKAREGSMRGYANSLNIPCILYEAGEALRFSDMSIKSGVNGVINVMRCLSMTKGKIKTKSTSVNASRSYWVRSESDGLVNIKLKLGERVSKGQVLANIVNPLGGEPSPLLAPTDGIIIGNSNIPVTNEGEALFHIAQFSGDEIEIINDNLDDFMQEYA”, the “soluble on expression in E. coli” value is reported as “not soluble”.
For “MGSDKIHHHHHHMAMNDNNINTCRYRVDVPYPPVRVVGPNPVYACEMLGNMGDAVSEMSDVTRYFYISVVTKPQYSWISACFRDISIVEMHHLNIFAELALLLGADPRLWSCRDCMQWWSPSYIGYPHGVRPLIAESIQAEEAAIRKYSHQADTICDMNIVAILRRIIQDEMYHLQIFREMYQQV”, the “soluble on expression in E. coli” value was “not soluble”.
For “MGSDKIHHHHHHMANGLQRLIRSLKLVARYGLIVMNDGLICLPIKQRQVVFESFNGKDVNDNPAAIYRELVATAPEYRTTAYFSVKPREFAALHKKYPQIQLVKRFTPRWVWLMARAEFWVLNSRLPNWWHQNRRTTVIQTWHGTPLKKLGADIEHVAIPGTTTAAYHQEFKTAASRWQYLIAPNQYSQTIFKSAFGFHHQFLSVGYPRNDRLYTTLPAEITDLKQQLLGSTKGPVVTYAPTWRDDMAVRPGVYQFDLPFDLAEFFQHVPANTQLIIRPHYLVKDAIDIHGFEERVHVLAETDITDLYLISDLLITDYSSVMFDFANLQRPQLFFAYDLAHYRDQLRGFYFDYEQEIPGPLVTTASAFYAQLDRWRQDGAFHDYQARQAAFYEKFCSWENGTASRQVVQVMLHGKDEIK”, the “soluble on expression in E. coli” value was “not soluble”.
In the case of “MGSDKIHHHHHHMANNFDLHAALTLATKPGPFVTMTLPVTGIPATDRTQFNSLLKQGKEQLEKVAPDRTWSAYAESFTPFEHGPLTNGSATGLLIMAGASDSYHYWLHTPVAATVTVTYQPNVLPILQAQDKTSDYDILLLGRDAFDLAQVRNGRPEMVNLPVDAPVTLEKALGSELRDRGRWQRSAGEHTQYSGTGSLDTAREADQRNYFMMVDAYVSQHYSNVDQVPLILVANASDQGNFRKFSQNAYLDHVVRVVQGPNLAAANQTLAALALSITEQRHQQATQIRRDAYAKVRQNQQVVQDLGPLATAAVQGQVAKLWLRDDASQPGHLTEKGTVMTATALSRQNNLYNDLALQVSRLGGQVEVLPADAMPTSNPVAAQLRLRETVAH”, the “soluble on expression in E. coli” value is reported as “not soluble”.

From the DeepSol protein solubility set
